Source: patent US20230220098A1, “THERAPEUTIC DRUG FOR POLYCYTHEMIA” (PERSEUS PROTEOMICS INC., priority 2019, published 2023)

System: HEL cells
Experiment: Combined effects of TfR436 and hydroxyurea on cell growth and cell death
Type: cell-based
Conditions: 72 hours
Method: HEL cells were cultured in an RPMI-1640 (Sigma-Aldrich)+10% FBS (Sigma-Aldrich)+1% PenStrep (Gibco) medium, and were then adjusted to 20000 cells/mL with the same medium as described above. Hydroxyurea (Wako Pure Chemical Industries, Ltd.) was weighed and was then dissolved in a concentration of 100 mM in distilled water for injection (Otsuka Pharmaceutical). The thus adjusted cell solution was seeded on a 96-well plate (Thermo SCIENTIFIC) in an amount of 100 μL/well. […]
From the plate after completion of the culture, the cultured cells in each well were dispensed into a V-bottom plate (Costar) in an amount of 100 μL, while pipetting. […] Then, the fluorescence of FL2 and the number of cells were measured. From the obtained results, the number of living cells (PI negative) and the number of dead cells (PI positive) were calculated, and thereafter, Viability (the number of PI-negative cells/the total number of cells×100) (%) and cell death percentage (100−Viability) (%) were calculated. Furthermore, the growth percentage in each well was calculated, when the number of living cells in the cell growth control was set to be 100%. […]

B1: TfR436: anti-human transferrin receptor antibody, VH SEQ ID NO: 7 and VL SEQ ID NO: 8, described in WO2014/073641; called PPMX-T003 in Tables 3 and 4 (antibody, listed as Homo sapiens, V domains shown)
VH: DVQLVQSGGGVVQPGRSLRLSCAASGFPFKSYGMHWVRQAPGKGLEWVAVISYDGSNKYYADSVKGRFTISRDNSKNTLYLQMNSLRGEDTAVYYCARDSNFWSGYYSPVDVWGQGTTVTVSS
VL: NFMLTQPHSVSESPGKTVTISCTRSSGSIASNSVQWYQQRPGSAPITVIYEDTQRPSGVPDRFSGSIDSSSNSASLTISGLQTEDEADYYCQSYDSAYHWVFGGGTKLAVL
- cell growth inhibition, combined use with hydroxyurea (Table 3): synergistic cell growth inhibition effects were observed from a half or more of combined uses
- cell death percentage, combined use with hydroxyurea (all combined uses except lowest concentrations of both, Table 4): synergistic cell death-enhancing effects
